{
  "source": "paper PMC5765368",
  "about": "“Large-Scale Low-Cost NGS Library Preparation Using a Robust Tn5 Purification and Tagmentation Protocol”",
  "key": {"[1]": {"target": "Tn5 transposase, hyperactive allele carrying the R27S, E54K and L372P mutations", "assay": "SEC; untagged Tn5 on Superdex200 Increase 10/300 GL (Superdex200 10/300 GL at BZH) in 50 mM Tris pH 7.5, 800 mM NaCl, 0.2 mM EDTA, 2 mM DTT, 10% glycerol; last step of the purification"}, "[2]": {"target": "Tn5 transposase, hyperactive allele carrying the E54K and L372P mutations", "assay": "SEC; untagged Tn5 on Superdex200 Increase 10/300 GL (Superdex200 10/300 GL at BZH) in 50 mM Tris pH 7.5, 800 mM NaCl, 0.2 mM EDTA, 2 mM DTT, 10% glycerol; last step of the purification"}, "[3]": {"target": "Tn5 transposase R27S,E54K,L372P (bacterial transposon Tn5 (expressed in …, UniProt Q46731 1-476, R27S;E54K;L372P))", "assay": "ITC; ITC: 50 mM Tris pH 7.5, 800 mM NaCl, 0.1 mM EDTA, 5% glycerol, 25 C; 100 uM DNA titrated into 4 uM protein", "settings": "protein: recombinant; tags: His6-Sumo3 removed by SenP2; one extra N-terminal Ser remains; chain copies: 2; 19 bp duplex with 5' overhang (14 nt for ME-A, 15 nt for ME-B)"}, "[4]": {"target": "Tn5 transposase E54K,L372P (hyperactive) (bacterial transposon Tn5 (expressed in …, UniProt Q46731 1-476, E54K;L372P))", "assay": "ITC; ITC: 50 mM Tris pH 7.5, 800 mM NaCl, 0.1 mM EDTA, 5% glycerol, 25 C; 100 uM DNA titrated into 4 uM protein", "settings": "protein: recombinant; tags: His6-Sumo3 removed by SenP2; one extra N-terminal Ser remains; chain copies: 2; 19 bp duplex with 5' overhang (14 nt for ME-A, 15 nt for ME-B)"}},
  "data": [
    {"molecule": "Tn5 transposase, hyperactive allele carrying the R27S, E54K and L372P mutations (enzyme)", "values": [
      {"measurement": "stoichiometry N", "setting": "[1]", "value": 2}
    ]},
    {"molecule": "Tn5 transposase, hyperactive allele carrying the E54K and L372P mutations (enzyme)", "values": [
      {"measurement": "stoichiometry N", "setting": "[2]", "value": 2}
    ]},
    {"molecule": "annealed Tn5 linker oligonucleotide (mosaic end); Tn5ME-A/Tn5MErev or Tn5ME-B/Tn5MErev, not stated which (dsDNA, 5' phosphate on Tn5MErev) DNA 1: TCGTCGGCAGCGTCAGATGTGTATAAGAGACAG DNA 2: CTGTCTCTTATACACATCT", "values": [
      {"measurement": "Kd", "setting": "[3]", "value": "12.9 ± 2.1", "unit": "µM"},
      {"measurement": "Kd", "setting": "[4]", "value": "0.5 ± 0.09", "unit": "µM"}
    ]}
  ]
}
